Assay results taken from patent US20230287109.

Target: dimeric human Tie2 extracellular domain (ECD)-human IgG fusion protein (UniProt Q02763)
Sequence (Q02763 23-748): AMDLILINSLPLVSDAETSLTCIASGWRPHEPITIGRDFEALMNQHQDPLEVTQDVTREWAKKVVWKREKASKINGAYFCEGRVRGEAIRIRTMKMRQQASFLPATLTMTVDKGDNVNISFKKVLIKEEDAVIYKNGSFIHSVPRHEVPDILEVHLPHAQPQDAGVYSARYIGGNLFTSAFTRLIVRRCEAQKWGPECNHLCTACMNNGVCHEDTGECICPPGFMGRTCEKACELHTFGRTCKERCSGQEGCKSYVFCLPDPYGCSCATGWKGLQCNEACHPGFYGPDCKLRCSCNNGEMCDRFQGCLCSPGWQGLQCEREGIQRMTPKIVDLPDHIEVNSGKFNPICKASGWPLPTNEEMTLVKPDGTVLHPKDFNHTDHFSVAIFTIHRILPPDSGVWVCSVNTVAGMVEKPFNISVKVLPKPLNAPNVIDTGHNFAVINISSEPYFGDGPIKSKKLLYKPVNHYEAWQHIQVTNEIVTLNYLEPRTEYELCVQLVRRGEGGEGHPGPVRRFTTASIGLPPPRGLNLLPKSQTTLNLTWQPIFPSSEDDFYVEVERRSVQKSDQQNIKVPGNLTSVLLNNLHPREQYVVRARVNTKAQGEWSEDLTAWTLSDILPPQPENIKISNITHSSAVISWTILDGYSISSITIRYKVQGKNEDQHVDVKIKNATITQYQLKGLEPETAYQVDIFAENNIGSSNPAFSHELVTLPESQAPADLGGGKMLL

## Recombinant human MMP-14
  cleavage of hTie2-ECD (reducing SDS-PAGE, 30° C., 16 hours): co-incubation of MMP-14 and human Tie2 resulted in significant reduction of intact hTie2-ECD, with the appearance of shorter, cleaved fragments
